This passage reports abundance fitness results from the Human Domainome abundance scans (Beltran et al. 2025).

± gives the uncertainty stated by the source.

The data set in a line: abundance fitness (aPCA) (normalised: wild type 0, dead -1); higher = more abundant; growth selection in yeast, the domain comes from the species named. As to conditions: Homo sapiens.
Substance “NEDD4-like E3 ubiquitin-protein ligase WWP2 R468W, O00308” came in with an abundance fitness of -0.336 ± 0.066.

The substance “NEDD4-like E3 ubiquitin-protein ligase WWP2 R468Y, O00308” registered an abundance fitness of -0.251 ± 0.064.

On to “NEDD4-like E3 ubiquitin-protein ligase WWP2 R476A, O00308”, for which the abundance fitness was -0.291 ± 0.058.

Substance “NEDD4-like E3 ubiquitin-protein ligase WWP2 R476C, O00308” yielded an abundance fitness of -0.198 ± 0.061.

Regarding “NEDD4-like E3 ubiquitin-protein ligase WWP2 R476D, O00308”, the abundance fitness is -0.297 ± 0.047.

As for “NEDD4-like E3 ubiquitin-protein ligase WWP2 R476F, O00308”, the abundance fitness was -0.505 ± 0.084.

“NEDD4-like E3 ubiquitin-protein ligase WWP2 R476G, O00308” yielded an abundance fitness of -0.206 ± 0.051.

Consider “NEDD4-like E3 ubiquitin-protein ligase WWP2 R476H, O00308”, for which the abundance fitness is -0.4 ± 0.081.

In turn, “NEDD4-like E3 ubiquitin-protein ligase WWP2 R476K, O00308” showed an abundance fitness of -0.248 ± 0.069.

“NEDD4-like E3 ubiquitin-protein ligase WWP2 R476L, O00308” returned an abundance fitness of -0.202 ± 0.037.

In the case of “NEDD4-like E3 ubiquitin-protein ligase WWP2 R476M, O00308”, the abundance fitness was -0.324 ± 0.048.

Turning to “NEDD4-like E3 ubiquitin-protein ligase WWP2 R476N, O00308”, the abundance fitness was -0.186 ± 0.049.

Substance “NEDD4-like E3 ubiquitin-protein ligase WWP2 R476P, O00308” returned an abundance fitness of -0.188 ± 0.07.

The substance “NEDD4-like E3 ubiquitin-protein ligase WWP2 R476Q, O00308” displayed an abundance fitness of -0.406 ± 0.074.

With “NEDD4-like E3 ubiquitin-protein ligase WWP2 R476S, O00308”, the abundance fitness is -0.271 ± 0.052.

In turn, “NEDD4-like E3 ubiquitin-protein ligase WWP2 R476T, O00308” registered an abundance fitness of -0.075 ± 0.049.

Substance “NEDD4-like E3 ubiquitin-protein ligase WWP2 R476W, O00308” yielded an abundance fitness of -0.294 ± 0.045.

“NEDD4-like E3 ubiquitin-protein ligase WWP2 R476Y, O00308” had an abundance fitness of -0.369 ± 0.05.

Take “NEDD4-like E3 ubiquitin-protein ligase WWP2 R493A, O00308”: the abundance fitness is -0.237 ± 0.12.

The substance “NEDD4-like E3 ubiquitin-protein ligase WWP2 R493C, O00308” registered an abundance fitness of -0.399 ± 0.12.

“NEDD4-like E3 ubiquitin-protein ligase WWP2 R493E, O00308” came in with an abundance fitness of -0.058 ± 0.063.

Regarding “NEDD4-like E3 ubiquitin-protein ligase WWP2 R493F, O00308”, the abundance fitness came out at 0.299 ± 0.12.

“NEDD4-like E3 ubiquitin-protein ligase WWP2 R493G, O00308” had an abundance fitness of 0.041 ± 0.064.

In turn, “NEDD4-like E3 ubiquitin-protein ligase WWP2 R493H, O00308” returned an abundance fitness of 0.065 ± 0.087.

As to “NEDD4-like E3 ubiquitin-protein ligase WWP2 R493I, O00308”, the abundance fitness was -0.502 ± 0.18.

“NEDD4-like E3 ubiquitin-protein ligase WWP2 R493K, O00308” came in with an abundance fitness of -0.022 ± 0.089.

The substance “NEDD4-like E3 ubiquitin-protein ligase WWP2 R493L, O00308” registered an abundance fitness of -0.088 ± 0.1.

As to “NEDD4-like E3 ubiquitin-protein ligase WWP2 R493M, O00308”, the abundance fitness was -0.083 ± 0.082.

As for “NEDD4-like E3 ubiquitin-protein ligase WWP2 R493N, O00308”, the abundance fitness was -0.666 ± 0.28.

In turn, “NEDD4-like E3 ubiquitin-protein ligase WWP2 R493P, O00308” came in with an abundance fitness of -0.006 ± 0.063.

The substance “NEDD4-like E3 ubiquitin-protein ligase WWP2 R493Q, O00308” had an abundance fitness of 0.132 ± 0.11.

In turn, “NEDD4-like E3 ubiquitin-protein ligase WWP2 R493S, O00308” came in with an abundance fitness of -0.201 ± 0.079.

With “NEDD4-like E3 ubiquitin-protein ligase WWP2 R493T, O00308”, the abundance fitness turned out to be 0.002 ± 0.056.

In turn, “NEDD4-like E3 ubiquitin-protein ligase WWP2 R493V, O00308” had an abundance fitness of -0.069 ± 0.037.

The substance “NEDD4-like E3 ubiquitin-protein ligase WWP2 R493W, O00308” came in with an abundance fitness of -0.013 ± 0.071.

“NEDD4-like E3 ubiquitin-protein ligase WWP2 R493Y, O00308” gave an abundance fitness of -0.055 ± 0.055.

Substance “NEDD4-like E3 ubiquitin-protein ligase WWP2 S456A, O00308” gave an abundance fitness of -0.066 ± 0.048.

“NEDD4-like E3 ubiquitin-protein ligase WWP2 S456C, O00308” gave an abundance fitness of -0.01 ± 0.063.

“NEDD4-like E3 ubiquitin-protein ligase WWP2 S456D, O00308”: the abundance fitness was 0.085 ± 0.071.

With “NEDD4-like E3 ubiquitin-protein ligase WWP2 S456E, O00308”, the abundance fitness came out at 0.017 ± 0.035.

Take “NEDD4-like E3 ubiquitin-protein ligase WWP2 S456F, O00308”: the abundance fitness is -0.24 ± 0.063.

In the case of “NEDD4-like E3 ubiquitin-protein ligase WWP2 S456G, O00308”, the abundance fitness is -0.043 ± 0.046.

“NEDD4-like E3 ubiquitin-protein ligase WWP2 S456H, O00308” displayed an abundance fitness of 0.346 ± 0.096.

“NEDD4-like E3 ubiquitin-protein ligase WWP2 S456K, O00308” had an abundance fitness of -0.039 ± 0.054.

With “NEDD4-like E3 ubiquitin-protein ligase WWP2 S456L, O00308”, the abundance fitness is -0.169 ± 0.05.

As to “NEDD4-like E3 ubiquitin-protein ligase WWP2 S456M, O00308”, the abundance fitness was -0.06 ± 0.065.

With “NEDD4-like E3 ubiquitin-protein ligase WWP2 S456N, O00308”, the abundance fitness was found to be 0.04 ± 0.074.

Take “NEDD4-like E3 ubiquitin-protein ligase WWP2 S456P, O00308”: the abundance fitness was -0.062 ± 0.062.

For the substance “NEDD4-like E3 ubiquitin-protein ligase WWP2 S456Q, O00308”, the abundance fitness is -0.11 ± 0.066.

Regarding “NEDD4-like E3 ubiquitin-protein ligase WWP2 S456R, O00308”, the abundance fitness is -0.142 ± 0.041.

Substance “NEDD4-like E3 ubiquitin-protein ligase WWP2 S456T, O00308” returned an abundance fitness of -0.04 ± 0.06.

Substance “NEDD4-like E3 ubiquitin-protein ligase WWP2 S456V, O00308” gave an abundance fitness of -0.208 ± 0.059.

For the substance “NEDD4-like E3 ubiquitin-protein ligase WWP2 S456W, O00308”, the abundance fitness is -0.192 ± 0.047.

In the case of “NEDD4-like E3 ubiquitin-protein ligase WWP2 S456Y, O00308”, the abundance fitness is -0.589 ± 0.12.

Take “NEDD4-like E3 ubiquitin-protein ligase WWP2 S481A, O00308”: the abundance fitness was 0 ± 0.061.

Regarding “NEDD4-like E3 ubiquitin-protein ligase WWP2 S481C, O00308”, the abundance fitness is -0.054 ± 0.061.

In the case of “NEDD4-like E3 ubiquitin-protein ligase WWP2 S481D, O00308”, the abundance fitness stood at 0.01 ± 0.037.

Consider “NEDD4-like E3 ubiquitin-protein ligase WWP2 S481E, O00308”, for which the abundance fitness was 0.022 ± 0.071.

With “NEDD4-like E3 ubiquitin-protein ligase WWP2 S481F, O00308”, the abundance fitness is -0.039 ± 0.062.

With “NEDD4-like E3 ubiquitin-protein ligase WWP2 S481G, O00308”, the abundance fitness was -0.032 ± 0.047.

On to “NEDD4-like E3 ubiquitin-protein ligase WWP2 S481H, O00308”, for which the abundance fitness was -0.17 ± 0.08.

For the substance “NEDD4-like E3 ubiquitin-protein ligase WWP2 S481I, O00308”, the abundance fitness was -0.047 ± 0.067.

In turn, “NEDD4-like E3 ubiquitin-protein ligase WWP2 S481K, O00308” gave an abundance fitness of -0.072 ± 0.049.

Substance “NEDD4-like E3 ubiquitin-protein ligase WWP2 S481L, O00308” yielded an abundance fitness of -0.081 ± 0.053.

Substance “NEDD4-like E3 ubiquitin-protein ligase WWP2 S481N, O00308” had an abundance fitness of -0.062 ± 0.054.

Substance “NEDD4-like E3 ubiquitin-protein ligase WWP2 S481P, O00308” displayed an abundance fitness of 0.003 ± 0.049.

As to “NEDD4-like E3 ubiquitin-protein ligase WWP2 S481Q, O00308”, the abundance fitness is -0.014 ± 0.039.

The substance “NEDD4-like E3 ubiquitin-protein ligase WWP2 S481R, O00308” gave an abundance fitness of -0.042 ± 0.034.

The substance “NEDD4-like E3 ubiquitin-protein ligase WWP2 S481T, O00308” came in with an abundance fitness of 0.029 ± 0.047.

“NEDD4-like E3 ubiquitin-protein ligase WWP2 S481V, O00308” came in with an abundance fitness of -0.151 ± 0.056.

In the case of “NEDD4-like E3 ubiquitin-protein ligase WWP2 S481W, O00308”, the abundance fitness was -0.09 ± 0.035.

On to “NEDD4-like E3 ubiquitin-protein ligase WWP2 S481Y, O00308”, for which the abundance fitness was -0.102 ± 0.063.

For the substance “NEDD4-like E3 ubiquitin-protein ligase WWP2 S487A, O00308”, the abundance fitness was -0.034 ± 0.055.

Substance “NEDD4-like E3 ubiquitin-protein ligase WWP2 S487C, O00308” registered an abundance fitness of -0.032 ± 0.04.

The substance “NEDD4-like E3 ubiquitin-protein ligase WWP2 S487D, O00308” showed an abundance fitness of 0.013 ± 0.036.

“NEDD4-like E3 ubiquitin-protein ligase WWP2 S487E, O00308”: the abundance fitness is 0.025 ± 0.034.

Substance “NEDD4-like E3 ubiquitin-protein ligase WWP2 S487F, O00308” had an abundance fitness of -0.112 ± 0.057.

Take “NEDD4-like E3 ubiquitin-protein ligase WWP2 S487G, O00308”: the abundance fitness is -0.03 ± 0.034.

In the case of “NEDD4-like E3 ubiquitin-protein ligase WWP2 S487H, O00308”, the abundance fitness came out at 0.111 ± 0.073.
